One molecule from patent publication US20250326835A1, “USE OF ANTI-CLAUDIN-1 ANTIBODIES TO TREAT CHOLANGIOCARCINOMA” (Alentis Therapeutics AG, priority 2022, published 2025) can be followed below.

The target in this assay is T1, human Claudin-1 (CLDN1) on EGI-1 cholangiocarcinoma cells (human, UniProt O95832 1-211).
T1 construct: whole, on cells; Endogenously expressed on human CCA cell lines; also called non-junctional CLDN1
T1 sequence (looked up): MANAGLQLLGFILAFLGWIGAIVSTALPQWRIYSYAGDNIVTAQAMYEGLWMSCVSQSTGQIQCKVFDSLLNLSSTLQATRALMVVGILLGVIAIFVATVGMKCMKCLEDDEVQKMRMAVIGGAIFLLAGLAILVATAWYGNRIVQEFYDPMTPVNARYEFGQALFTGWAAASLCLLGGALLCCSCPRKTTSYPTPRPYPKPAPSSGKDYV
The assay can be described thus: flow cytometry on EGI-1 cells, 10 µg/ml antibody, Alexa647 secondary, delta-MFI against isotype control. As to the method: A first-line chemotherapy treatment for advanced CCA is cisplatin plus gemcitabine (Borbath et al., 48(7) Eur J Cancer 990-996 (May 2012)). To investigate the expression of CLDN1 upon treatment with cisplatin and gemcitabine, 1.5×10⁵ CCA EGI-1 cells were treated with cisplatin (100 nM) and gemcitabine (10 nM) for 24 hours. Cells were then collected, and CLDN1 expression was assessed by flow cytometry and Western Blot using CLDN1 specific Abs.
For flow cytometry, cells were incubated with the anti-CLDN1 mAb H3L3 or the isotype control mAb at a concentration of 10 μg/ml in triplicates per condition. Following incubation with the primary antibody for 1 hour, cells were washed and incubated with human Alexa647-conjugated secondary antibody at 4° C. for 45 minutes. Cells were subsequently washed and fixed with 2% paraformaldehyde (PFA). Data were acquired using Cytoflex B2R2V0 (Beckman Coulter) and analyzed using CytExpert 2.1 and FlowJo v10 (Beckman Coulter). CLDN1 expression was calculated as the difference of the mean fluorescence intensities of cells stained with anti-CLDN1 mAb H3L3 and isotype control mAb. The experiment was independently repeated three times.

B1: anti-CLDN1 mAb H3L3 (antibody, human IgG1, kappa, V domains shown)
VH: QVQLVESGGGVVQPGRSLRLSCLGSGFSFSSYGMNWVRQAPGKGLEWVASISPSGSYFYYADSVKGRFTISRDNSKNTLYLQMTSLRAEDTAIYYCARLPGFNPPFDHWGQGTLVTVSS
VL: DIQMTQSPSSLSASVGDRVTITCKASQNVGGNVDWYQWKPGKAPKLLIYGASNRYTGVPDRFRGSGSGTDFTLTISSLQPEDVATYYCLQYKNNPWTFGGGTKVEIKR
notes: also called CLDN1-specific mAb H3L3; anti-CLDN1 H3L3 antibody
Take B1: the binding result is given as “binds”.
